Data set [1] is described as follows: fluorescence imaging, SK-RC-39 cells, ER/Golgi markers. To be noted: glycan lost; control: wild-type CNNM3-mCherry.
Data set [2] in a line: co-localisation with ARL15-mClover3, SK-RC-39 cells. To be noted: glycan lost; control: wild-type CNNM3-mCherry.

B1: CNNM3: N73A (protein)
parent chain: MAAAVAAAGRLGWLFAALCLGNAAGEAAPGPRVLGFCLEEDGAAGAGWVRGGAARDTPDATFLLRLFGPGFANSSWSWVAPEGAGCREEAASPAGEWRALLRLRLRAEAVRPHSALLAVRVEPGGGAAEEAAPPWALGLGAAGLLALAALARGLQLSALALAPAEVQVLRESGSEAERAAARRLEPARRWAGCALGALLLLASLAQAALAVLLYRAAGQRAVPAVLGSAGLVFLVGEVVPAAVSGRWTLALAPRALGLSRLAVLLTLPVALPVGQLLELAARPGRLRERVLELARGGGDPYSDLSKGVLRCRTVEDVLTPLEDCFMLDASTVLDFGVLASIMQSGHTRIPVYEEERSNIVDMLYLKDLAFVDPEDCTPLSTITRFYNHPLHFVFNDTKLDAVLEEFKRGKSHLAIVQKVNNEGEGDPFYEVLGLVTLEDVIEEIIRSEILDESEDYRDTVVKRKPASLMAPLKRKEEFSLFKVSDDEYKVTISPQLLLATQRFLSREVDVFSPLRISEKVLLHLLKHPSVNQEVRFDESNRLATHHYLYQRSQPVDYFILILQGRVEVEIGKEGLKFENGAFTYYGVSALTVPSSVHQSPVSSLQPIRHDLQPDPGDGTHSSAYCPDYTVRALSDLQLIKVTRLQYLNALLATRAQNLPQSPENTDLQVIPGSQTRLLGEKTTTAAGSSHSRPGVPVEGSPGRNPGV
Turning to B1, the localisation_or_trafficking result in data set [1] was “abolishes”; in data set [2] it was “decreases”.

These data come from publication PMC8257531.
